{"source": "patent US5863889A", "about": "“ICAM-1/LFA-1 short-chain peptides and method of using same” (The University of Kansas, priority 1996, dated 1999)", "key": {"ICAM-1": {"molecular_target": "T1, ICAM-1 (Homo sapiens, UniProt P05362)", "T1 construct": "host or cells: Molt3 human T-cell leukemia line", "T1 sequence (P05362 28-532)": "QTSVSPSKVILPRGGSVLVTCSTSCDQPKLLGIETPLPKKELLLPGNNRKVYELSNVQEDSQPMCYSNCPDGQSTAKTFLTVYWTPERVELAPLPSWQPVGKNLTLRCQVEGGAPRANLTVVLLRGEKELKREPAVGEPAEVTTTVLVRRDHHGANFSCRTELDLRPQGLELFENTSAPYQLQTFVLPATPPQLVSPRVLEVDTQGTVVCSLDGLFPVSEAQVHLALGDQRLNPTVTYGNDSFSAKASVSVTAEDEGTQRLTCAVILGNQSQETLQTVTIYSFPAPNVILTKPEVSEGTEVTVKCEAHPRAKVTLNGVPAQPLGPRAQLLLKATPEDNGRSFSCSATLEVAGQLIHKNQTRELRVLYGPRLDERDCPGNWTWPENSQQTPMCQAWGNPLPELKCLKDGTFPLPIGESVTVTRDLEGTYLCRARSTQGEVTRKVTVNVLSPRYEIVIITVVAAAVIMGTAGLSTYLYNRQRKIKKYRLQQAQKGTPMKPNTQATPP", "assay": "Conformation modulator assay: flow cytometry of FITC-labeled RB-1-88 binding to T-cells after pre-incubation with first peptide", "format": "cell-based", "details": "first peptide 4550 μM", "experimental": "The antibody binding assay of Example 2 was twice repeated at a peptide concentration of 4550 μM, each time substituting a 455 nmol quantity of synthetic peptide selected from the group consisting of ICAM-based peptide SC-3-111 (Sequence ID No. 10) and LFA-based peptide LJCRF-4 (Sequence ID No. 16) in respective assays. Following incubation for 30 minutes at 37° C. after introduction of the first peptides, both incubated culture were supplemented by an additional quantity of FITC-labeled RB-1-88 (Sequence ID No. 19) peptide in a quantity sufficient to provide a 1.90 μM concentration in the cell/PBS solution.\nFollowing addition of the RB-1-88 (Sequence ID No. 19) peptide, the mixture was incubated for 30 minutes at 4° C., washed three times with 500 μl PBS/BSA, resuspended in 500 μl PBS/BSA and immediately subjected to a flow cytometer analysis as before. Table 3 presents the results of this analysis, which are also depicted in FIGS. 8 (SC-3-111) and 9 (LJCRF-4)."}, "Molt3 cells": {"system": "Molt3 cells", "assay": "Cell metabolic assay (MTT)", "format": "cell-based"}}, "note": "“Also recorded” adds a separate entry of the source."}
{"substance": "SC-3-111: ICAM-1 based short-chain peptide, Sequence ID No. 10 (QTSVSPSKVI)", "values": [{"measurement": "FACS Analysis (RB-1-88 binding)", "setting": "ICAM-1; then FITC-labeled RB-1-88 1.90 μM, shift vs control", "value": -8, "unit": "%"}, {"measurement": "negative blocking shift of RB-1-88 binding (FIG. 8)", "setting": "ICAM-1; then RB-1-88 1.90 μM, called probably not significant", "value": 8, "unit": "%"}, {"measurement": "effect on binding of labeled peptide (RB-1-88 / LJCRF-6) to T-cell ICAM-1", "setting": "ICAM-1; FIGS. 8, 9", "value": "substantially no T-cell binding enhancement; also recorded: no effect"}, {"measurement": "MTT % Viability", "setting": "Molt3 cells; peptide 230 μM", "value": 93, "unit": "%"}, {"measurement": "MTT % Viability", "setting": "Molt3 cells; peptide 460 μM", "value": 95, "unit": "%"}, {"measurement": "MTT % Viability", "setting": "Molt3 cells; peptide 910 μM", "value": 89, "unit": "%"}, {"measurement": "MTT % Viability", "setting": "Molt3 cells; peptide 1820 μM", "value": 69, "unit": "%"}]}
